Paper PMC6210676

Molecular target: calcium/calmodulin dependent protein kinase IIα (UniProt Q9UQM7)
UniProt Q9UQM7, sequence (Q9UQM7 whole entry): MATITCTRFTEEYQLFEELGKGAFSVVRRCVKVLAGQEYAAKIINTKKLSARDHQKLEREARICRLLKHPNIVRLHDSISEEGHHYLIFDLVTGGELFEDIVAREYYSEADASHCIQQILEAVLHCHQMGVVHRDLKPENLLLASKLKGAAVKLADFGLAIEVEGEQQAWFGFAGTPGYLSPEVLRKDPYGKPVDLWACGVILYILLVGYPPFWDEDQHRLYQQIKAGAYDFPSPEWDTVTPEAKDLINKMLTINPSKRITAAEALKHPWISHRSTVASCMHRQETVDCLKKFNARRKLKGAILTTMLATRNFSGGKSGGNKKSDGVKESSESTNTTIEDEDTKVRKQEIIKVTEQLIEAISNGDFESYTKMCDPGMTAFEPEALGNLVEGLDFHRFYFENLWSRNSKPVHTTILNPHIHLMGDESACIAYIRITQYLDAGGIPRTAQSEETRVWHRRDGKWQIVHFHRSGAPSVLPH

Substance: MetO77 calmodulin (from UniProt P0DP23 1-149) (natural protein)
- half maximal activation of CaMKIIα (phosphorylation of syntide-2, HPLC), calmodulin 10^-9 to 10^-6 M, 0.5 mM calcium chloride, 37°: 129 nM

Substance: wild type calmodulin (recombinant, human) (from UniProt P0DP23 1-149) (natural protein)
- half maximal activation of CaMKIIα (phosphorylation of syntide-2, HPLC), calmodulin 10^-9 to 10^-6 M, 0.5 mM calcium chloride, 37°: 64 nM
